Data on 25 molecules can be found in patent US20240368277A1 (ORIONIS BIOSCIENCES, published 2024).

B1: 2HSI86 (VHH)
VHH: QVQLQESGGGLVQPGGSLRLSCAASGRTFSSLDMGWFRQAPGKEREFVAGISRSGISQYYADSMKGRFTISRDNAKNLVYLQINSLKPEDTAVYYCAAALTFRGSDLPRDSNYWGQGTQVTVSS
notes: The entry includes the C-terminal AAA linker, HA tag and His6 tag, as expressed from pMECS
B2: 2HSI32 (VHH)
VHH: QVQLQESGGGVVQAGDSLRLSCVASGRTFSSLDMGWFRQAPGKEREFVAGISRTGISAYYADSMKGRFTISRDNAKNLVYLQMNSLKSEDTAVYYCAAALTFRGSDLPRDSNYWGQGTQVTVSS
notes: as for B1
B3: 2HSI89 (VHH)
VHH: QVQLQESGGGVVQAGDSLRLSCVASERTFSSLDMGWFRQAPGKEREFVAGISRSGISQYYADSMKGRFTISRDNAKNLVYLQMNSLKPEDTAVYYCAAALTFRGSNLPRDSNYWGQGTQVTVSS
notes: as for B1
B4: 2HSI35 (VHH)
VHH: QVQLQESGGGLVQPGGSLRLSCAASGFTFGGYDMGWFRQAPGKEREFVAGISRSGISQYYADSMKGRFTISRDNAKNLVYLQMNSLKPEDTAVYYCAAALTFRGSDLPRDSNYWGQGTQVTVSS
notes: as for B1
B5: 2HSI1 (VHH)
VHH: QVQLQESGGGVVQAGDSLRLSCVASGRTFSSLDMGWFRQAPGKEREFVAGISRSGISQYYADSMKGRFTISRDNAKNLVYLQMNSLKPEDTAVYYCAAALTFRGSDLPRDSNYWGQGTQVTVSS
notes: as for B1
B6: 2HSI40 (VHH)
VHH: QVQLQESGGGVVQAGDSLRLSCVASGRTFSSLDMGWFRQAPGKEREFVAGISRSGISQYYADSMKGRFTISRDNAKSLVYLQMNSLKPEDTAVYYCAAALTFRGSDLPRDSNYWGQGTQVTVSS
notes: as for B1
B7: 2HSI57 (VHH)
VHH: QVQLQESGGGLVQAGGSLRLSCAASGRTFSSLDMGWFRQAPGKEREFVAGISRSGISQYYADSMKGRFTISRDNAKNLVYLQMNSLKPEDTAVYYCAAALTFRGSDLPRDSNYWGQGTQVTVSS
notes: as for B1
B8: 2HSI68 (VHH)
VHH: QVQLQESGGGWVQPGGSLRLSCEASGRTSSSLDMGWFRQAPGKEREFVAGISRTGISAYYADSMKGRFTISRDNAKNLVYLQMNSLKSEDTAVYYCAAALTFRGSDLPRDSNYWGQGTQVTVSS
notes: as for B1
B9: 2HSI90 (VHH)
VHH: QVQLQESGGGVVQAGDSLRLSCVASERTFSSLDMGWFRQAPGKEREFVAGISRSGISQYYADSMKGRFTISRDNAKNLVYLQMNSLKPEDTAVYYCAAALTFRGSDLPRDSNYWGQGTQVTVSS
notes: as for B1
B10: 2HSI109 (VHH)
VHH: QVQLQESGGGSVQAGDSLRLSCVASGRTFSSLDMGWFRQAPGKEREFVAGISRTGISAYYADSMKGRFTISRDNAKNLVYLQMNSLKSEDTAVYYCAAALTFRGSDLPRDSNYWGQGTQVTVSS
notes: as for B1
B11: 2HSI110 (VHH)
VHH: QVQLQESGGGLVQSGDSLRLSCVASGRTFSSLDMGWFRQAPGKEREFVAGISRSGISQYYADSMKGRFTISRDNAKNLVYLQMNSLKPEDTAVYYCAAALTFRGSDLPRDSNYWGQGTQVTVSS
notes: as for B1
B12: 2HSI44 (VHH)
VHH: QVQLQESGGGLVQAGGSLRLSCTASGRTFSSLDMGWFRQAPGKEREFVAGISRSGISQYYADSMKGRFTISRDNAKNLVYLQMNSLKPEDTAVYYCAAALTFRGSDLPRDSNYWGQGTQVTVSS
notes: as for B1
B13: 2HSI77 (VHH)
VHH: QVQLQESGGGSVQAGGSLRLSCVASGRTFSSLDMGWFRQAPGKEREFVAGISRSGISQYYADSMKGRFTISRDNAKNLVYLQMNSLKPEDTAVYYCAAALTFRGSDLPRDSNYWGQGTQVTVSS
notes: as for B1
B14: 2HSI88 (VHH)
VHH: QVQLQESGGGVVQAGDSLRLSCVASGHTFSSLDMGWFRQAPGKEREFVAGISRSGISQYYADSMKGRFTISRDNAKNLVYLQMNSLKPEDTAVYYCAAALTFRGSDLPRDSNYWGQGTQVTVSS
notes: as for B1
B15: 2HSI54 (VHH)
VHH: QVQLQESGGGVVQAGDSLRLSCVASGRTFSSLDMGWFRQAPGKEREFVAGISRSGISQYYANSMKGRFTISRDNAKNLVYLQMNSLKPEDTAVYYCAAALTFRGSDLPRDSNYWGQGTQVTVSS
notes: as for B1
B16: 2HSI98 (VHH)
VHH: QVQLQESGGGVVQAGDSLGLSCVASGRTFSSLDMGWFRQAPGKEREFVAGISRSGISQYYADSMKGRFTISRDNAKNLVYLQMNSLKPEDTAVYYCAAALTFRGSDLPRDSNYWGQGTQVTVSS
notes: as for B1
B17: 2HSI3 (VHH)
VHH: QVQLQESGGGVVQAGDSLKLSCVASGRTFSSLDMGWFRQAPGKEREFVAGISRSGISQYYADSMKGRFTISRDNAKNLVYLQMNSLKPEDTAVYYCAAALTFRGSDLPRDSNYWGQGTQVTVSS
notes: as for B1
B18: 2HSI49 (VHH)
VHH: QVQLQESGGGVVQTGDSLRLSCVASGRTFSSLDMGWFRQAPGKEREFVAGISRSGISQYYADSMKGRFTISRDNAKNLVYLQMNSLKPEDTAVYYCAAALTFRGSDLPRDSNYWGQGTQVTVSS
notes: as for B1
B19: 2HSI102 (VHH)
VHH: QVQLQESGGGVVQAGDSLRLSCVASGRAFSSLDMGWFRQAPGKEREFVAGISRSGISQYYADSMKGRFTISRDNAKNLVYLQMNSLKPEDTAVYYCAAALTFRGSDLPRDSNYWGQGTQVTVSS
notes: as for B1
B20: 2HSI113 (VHH)
VHH: QVQLQESGGGLVQAGDSLRLSCVASGRTFSSLDMGWFRQAPGKEREFVAGISRSGISQYYADSMKGRFTISRDNAKNLVYLQMNSLKPEDTAVYYCAAALTFRGSDLPRDSNYWGQGTQVTVSS
notes: as for B1
B21: 2HSI24 (VHH)
VHH: QVQLQESGGGVVQAGDSLRLSCVASGRTFSSLDMGWFRQTPGKEREFVAGISRSGISQYYADSMKGRFTISRDNAKNLVYLQMNSLKPEDTAVYYCAAALTFRGSDLPRDSNYWGQGTQVTVSS
notes: as for B1
B22: 2HSI55 (VHH)
VHH: QVQLQESGGGVVQAGDPLRLSCVASGRTFSSLDMGWFRQAPGKEREFVAGISRSGISQYYADSMKGRFTISRDNAKNLVYLQMNSLKPEDTAVYYCAAALTFRGSDLPRDSNYWGQGTQVTVSS
notes: as for B1
B23: 2HSI105 (VHH)
VHH: QVQLQESGGGVVQAGDSLRLSCVASGRTFSSLDMGWFRQAPGKEREFVAGISRSGISQYYADSMKGRFTISRDNAKNLVYLQMNSLRPEDTAVYYCAAALTFRGSDLPRDSNYWGQGTQVTVSS
notes: as for B1
B24: 2HSI31 (VHH)
VHH: QVQLQESGGGVVQAGDSLRLSCVASGRTFSSLDMGWFRQAPGKEREFVAGISRSGISQYYADSMRGRFTISRDNAKNLVYLQMNSLKPEDTAVYYCAAALTFRGSDLPRDSNYWGQGTQVTVSS
notes: as for B1
B25: 2HSI80 (VHH)
VHH: QVQLQESGGGVVQAGDSLRLSCVASGRTFSSLDMGWFRQAPGKEREFVAGVSRSGISQYYADSMKGRFTISRDNAKNLVYLQMNSLKPEDTAVYYCAAALTFRGSDLPRDSNYWGQGTQVTVSS
notes: as for B1

The target in the first experiment is T1, full length human SIRPA expressed on transiently transfected Hek293T cells (pMET7 FLAG-hSIRPA) (human, UniProt P78324 31-504).
T1 construct: whole, on cells; also called human SIRP1α; human SIRPα
T1 sequence (P78324 31-504): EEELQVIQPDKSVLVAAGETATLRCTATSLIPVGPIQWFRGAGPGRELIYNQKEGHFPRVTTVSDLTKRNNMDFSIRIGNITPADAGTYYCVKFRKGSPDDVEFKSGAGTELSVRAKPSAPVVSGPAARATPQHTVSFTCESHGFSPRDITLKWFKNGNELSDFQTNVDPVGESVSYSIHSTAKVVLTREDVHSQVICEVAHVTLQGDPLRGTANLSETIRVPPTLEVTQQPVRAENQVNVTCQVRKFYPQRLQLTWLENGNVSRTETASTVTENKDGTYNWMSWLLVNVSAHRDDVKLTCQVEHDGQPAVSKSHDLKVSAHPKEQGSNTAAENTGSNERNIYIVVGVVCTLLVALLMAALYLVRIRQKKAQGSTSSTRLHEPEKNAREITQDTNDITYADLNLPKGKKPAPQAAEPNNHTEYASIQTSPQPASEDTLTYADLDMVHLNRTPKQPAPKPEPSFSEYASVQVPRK
In words: FACS, serial dilution of purified VHH on hSIRPA- or empty vector (MOCK)-transfected Hek293T cells; FITC-coupled anti-HA antibody. Here is the method: Expression-vectors (pMECS) encoding the 27 putative human SIRPA binding VHHs were transformed to WK6 cells. VHHs (with a C-terminal HA and His-tag) were expressed in periplasmic extracts upon IPTG overnight stimulation and purified from the periplasmic extracts using the HisPur Cobalt Spin Plates (ThermoFisher) according to the manufacturer's guidelines. Purified VHHs were applied in a FACS binding-assay at 1 μg/ml: Hek293T cells were transiently transfected with a full length human SIRPA plasmid (pMET7 FLAG-hSIRPA) or an empty vector (MOCK). Two days after transfection, cells were resuspended and incubated with purified VHH in FACS buffer (PBS+0.5 mM EDTA+3% FBS). VHH binding was detected using a FITC-coupled anti-HA Ab (Genscript). Samples were acquired with a MACSQuant X instrument (Miltenyi Biotec) and analyzed using the FlowLogic software (Miltenyi Biotec).
Based on this initial binding-experiment and on the comparison of the 27 sequences, 5 VHHs (4 members of sequence group 1 which encompasses 26 sequences and 2HSI22 which is a unique representative of sequence group 2) were studied in more detail for binding to human SIRPA. Binding in FACS was measured as described above. In brief, hSIRPA or empty vector (MOCK) transfected cells were incubated with a serial dilution of purified VHH and binding detected using a FITC-coupled anti-HA Ab (GenScript). Data are summarized in FIG. 7 and illustrate concentration dependent specific binding to hSIRPA for all 5 VHHs.
Background: In flow cytometry, cells or beads pass a laser one at a time.
Regarding B1, the binding result is “binds”. For the molecule B2, the binding result is reported as “binds”. For B3, the binding result was “binds”. B4: the binding result is on record as “binds”.

The target of the next experiment is T2, His6-tagged recombinant extracellular domain of human signal regulatory protein alpha (hSIRP1α) (human, UniProt P78324 31-373).
T2 construct: extracellular domain; also called antigen; not shown: His6 tag
T2 sequence (P78324 31-373): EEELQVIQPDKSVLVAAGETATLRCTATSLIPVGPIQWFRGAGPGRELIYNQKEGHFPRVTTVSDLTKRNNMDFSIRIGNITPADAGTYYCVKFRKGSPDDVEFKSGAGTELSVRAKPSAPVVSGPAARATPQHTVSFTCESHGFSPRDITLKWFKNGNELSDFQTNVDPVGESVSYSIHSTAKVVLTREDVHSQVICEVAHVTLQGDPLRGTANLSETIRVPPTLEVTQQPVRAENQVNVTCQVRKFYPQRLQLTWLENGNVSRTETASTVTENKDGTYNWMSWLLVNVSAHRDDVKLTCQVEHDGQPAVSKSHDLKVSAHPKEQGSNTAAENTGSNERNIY
Kind of experiment: ELISA, crude periplasmic extracts on coated His6-tagged hSIRP1α extracellular domain. The method, then:
The VHH library was panned on solid-phase coated antigen (200 μg/ml in 100 mM NaHCO₃, pH 9.3) for 3 rounds. The enrichment for antigen-specific phages was assessed after each round of panning by comparing the number of phagemid particles eluted from antigen-coated wells with the number of phagemid particles eluted from negative control (uncoated blocked) wells. […] There was no enrichment after the 1st panning round. In total, 190 colonies from panning round 2 were randomly selected and analyzed by ELISA for the presence of antigen-specific VHHs in their periplasmic extracts (ELISA using crude periplasmic extracts including soluble VHHs) (see FIG. 5). The antigens used for panning and ELISA screening were the same as the ones used for immunization, using uncoated blocked wells as negative control. […] Based on sequence data of the positive colonies, 27 different full length VHHs were distinguished (see FIGS. 4A, 4B, and 5 and SEQ ID Nos: 300-326).
With B5, the binding result was “binds”. In the case of B1, the binding result is on record as “binds”. In the case of B6, the binding result is recorded as “binds”.

For B7, the binding result is given as “binds”. For the molecule B8, the binding result was “binds”.

Regarding B9, the binding result was “binds”. For B10, the binding result is reported as “binds”.

Consider B11, for which the binding result is “binds”.

As for B12, the binding result is on record as “binds”. Regarding B13, the binding result is recorded as “binds”. Still for that read-out and setting: the same measure for B14: “binds”. Consider B15, for which the binding result was “binds”. For the molecule B2, the binding result is on record as “binds”.

Turning to B16, the binding result is given as “binds”. On the same count and under the same terms, the same measure for B17: “binds”; for B18: “binds”.

As for B19, the binding result is “binds”. On the same count and under the same terms, the same measure for B3: “binds”. As for B20, the binding result is listed as “binds”.

Consider B21, for which the binding result is reported as “binds”. On to B22, for which the binding result was “binds”.

As for B23, the binding result is reported as “binds”. With B24, the binding result is listed as “binds”. For B25, the binding result is “binds”. As for B4, the binding result is on record as “binds”.
